Measurements published in patent US20250163186A1 (PHYLAXIS BIOSCIENCE, published 2025).
Where two headings read alike, the source gives them in different places. Each block holds one binder with its values, some of them ahead of it.

What was measured:
human IgE [1] = molecular target: T1, human IgE (human, UniProt P01854 1-428); experiment: SPR (Biacore T200, 37 C), IgE high density (~1400 RU) on protein L, 1:1 fit
T1 construct: written under the same molecule; also called IgE (Abcam ab65866); soluble IgE
Method: (§1) All experiments were done using a Biacore T200 instrument with a CM5 chip at 37° C. except immobilization of Protein L, which was done at 25° C.
(§2) For this study Flow Cell (FC) 1 was used as the reference for FC2, FC3 and FC4. Protein L (15 mg/ml stock concentration) was diluted (1:50 dilution, 0.3 mg/ml diluted concentration) in 10 mM sodium acetate buffer at pH 4.5 and immobilized onto all FCs to a level of ˜14000 RU, using the standard amine coupling chemistry. HBS-P (10 mM Hepes, pH 7.4, 150 mM NaCl, 0.05% v/v surfactant P20) was used as the immobilization running buffer. […] HBS-P was used as the capture running buffer. Overnight kinetics were performed for all analytes in the presence of HBS-P. The flow rate of all analyte solutions was maintained at 50 μL/min. The contact and dissociation times used were 120 seconds and 600 seconds, respectively. Glycine pH 1.5 was injected for 20 seconds for surface regeneration. This regeneration condition takes away all captured ligand. Therefore, fresh ligand solution was captured in the beginning of each injection cycle. Injected analyte concentrations are from 80 nM to 0.01953 nM (four-fold dilutions). All analytes were injected in duplicate.

human IgE [2] = molecular target: T1, human IgE; experiment: ELISA, plate-coated IgE
human IgE [3] = molecular target: T1, human IgE; experiment: ELISA, plate-coated IgE, apparent Kd (one site fit)
[4] = molecular target: recombinant human anti-hapten dinitrophenol (DNP) IgE (rhIgE) (human, UniProt P01854-1 1-428); experiment: cell-based or functional assay
human IgE [5] = molecular target: T1, human IgE; experiment: flow cytometry, blocks binding of 5 nM IgE to FCER1A on human mast cells
[6] = molecular target: human IgM (Novus, NBP1-97056) (human, UniProt P01871-1 1-453); experiment: ELISA, plate-coated immunoglobulin
[7] = molecular target: human IgE pre-complexed to FCER1A on the surface of human mast cells (human, UniProt P01854-1 1-428); experiment: flow cytometry on IgE-loaded human mast cells
human IgE [8] = molecular target: T1, human IgE; experiment: ELISA, human IgE coated
Method: (§3) The following day, plates were blocked with 1% BSA in PBS for 30 min-1 hour. […] Afterwards, the plates were PBST washed with the plate washer and detected with Peroxidase AffiniPure Donkey Anti-Human IgG, Fcγ fragment specific secondary detection antibody. Room temperature TMB was added and OD650 was measured using the Emax plate reader. […] Room temperature TMB was added and OD650 was measured using the Emax plate reader. The data was plotted and analyzed using GraphPad Prism analysis software.

human IgE [9] = molecular target: T1, human IgE; experiment: ELISA, blocks binding of 5 nM IgE to coated FCER1A
Method: as §3

human IgE [10] = molecular target: T1, human IgE; experiment: SPR (Biacore T200, 37 C), IgE medium density (~114 RU) on protein L, 1:1 fit
Method: as §1, §2

human IgE [11] = molecular target: T1, human IgE; experiment: SPR (Biacore T200, 37 C), IgE low density (~14 RU) on protein L, 1:1 fit
Method: as §1, §2

human IgE [12] = molecular target: T1, human IgE; experiment: SPR, blocks binding of 5 nM IgE to captured FCER1A
Method: as §1
Sensorgrams from the overnight kinetics were plotted for further evaluation.

human IgE [13] = molecular target: T1, human IgE; experiment: ELISA, human IgE coated; remark: listed apart in the source
Method: as §3

human IgE [14] = molecular target: T1, human IgE; experiment: ELISA, plate-coated IgE; remark: listed apart in the source
human IgE [15] = molecular target: T1, human IgE; experiment: SPR, blocks binding of 5 nM IgE to captured FCER1A; remark: listed apart in the source
Method: (§4) All experiments were done using a Biacore T200 instrument with a CM5 chip at 25° C., Flow Cell (FC) 1 was used as the reference for FC2, and FC3 for FC4.
(§5) Anti-His antibody (1 mg/ml stock) was diluted (1:100 dilution, 0.01 mg/ml diluted concentration) in 10 mM sodium acetate buffer at pH 4.5 and immobilized onto FCs 1 and 2 to a level of ˜14000 RU, using the standard amine coupling chemistry. […] FCER1A (0.4 mg/ml stock concentration) was diluted ([…], ˜0.004 mg/ml diluted concentration) in PBS-P captured onto FC2 to levels of ˜130 RU. PBS-P was used as the capture running buffer. Overnight kinetics were performed for all analytes in the presence of PBS-P. The flow rate of all analyte solutions was maintained at 50 μL/min. The contact and dissociation times used were 120 seconds and 300 seconds, respectively. Glycine pH 1.5 was injected for 20 seconds for surface regeneration. This regeneration condition takes away all captured FCER1A. Therefore, fresh FCER1A was captured in the beginning of each injection cycle. […] All analytes were injected in duplicate. […] Sensorgrams from the overnight kinetics were plotted for further evaluation.

[16] = molecular target: T2, recombinant human FCER1A-His (ACRO FCA-H5228) (human, UniProt P12319 26-205); experiment: SPR, antibody alone injected over captured FCER1A
T2 construct: Bought protein; also called FceRIA; IgE receptor
T2 sequence: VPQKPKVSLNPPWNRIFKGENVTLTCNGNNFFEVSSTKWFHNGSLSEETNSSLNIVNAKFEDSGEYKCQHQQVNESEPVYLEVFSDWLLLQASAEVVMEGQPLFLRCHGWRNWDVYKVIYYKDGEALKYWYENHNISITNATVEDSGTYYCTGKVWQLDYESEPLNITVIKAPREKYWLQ
Method: as §4, §5

[17] = molecular target: T3, chimeric cynomolgus monkey IgE (cynomolgus monkey (Macaca fascicularis)); experiment: ELISA, plate-coated cynomolgus IgE, apparent Kd (one site fit)
T3 construct: domain: CH1-4 constant domains; Generated in house in place of commercial cynomolgus IgE; also called cyno IgE

human IgE [18] = molecular target: T1, human IgE; experiment: ELISA, plate-coated IgE, apparent Kd (one site fit); remark: listed apart in the source
Source text: The data was plotted and analyzed using GraphPad Prism analysis software.

human IgE [19] = molecular target: T1, human IgE; experiment: ELISA, blocks binding of 5 nM IgE to coated FCER1A; remark: listed apart in the source
Method: as §3

[20] = molecular target: human IgG2 (Athensresearch, 16-16-090707-2) (human, UniProt P01859-1 1-326 = IgG part); experiment: ELISA, human IgG2 coated
[21] = molecular target: T4, human IgE pre-complexed to FceRII/CD23 on the surface of RPMI 8866 cells (human, UniProt P01854 1-428; P06734 1-321); experiment: flow cytometry, IgE-loaded RPMI 8866 cells
T4 construct: also called IgE:CD23 complexes; IgE in complex with CD23
Method: The washed cells were diluted to 0.8×10⁶ cells/mL. 50 μL of this cell suspension was then transferred to wells of a round-bottom 96-well assay plate (40 k cells/well). 50 μL of titrated test articles (diluted to 1 μM and titrated across 1:3 in FACS buffer) were added to the RPMI 8866 cells which produced a 2-fold dilution of the antibody concentrations from the titration series. The final starting concentration was 500 nM with a total of 11 points in the titration. […] The cells were incubated with secondary detection antibodies for 20 minutes then washed once, resuspended in 60 μL of FACS Buffer, and analyzed on a NovoCyte 3000 flow cytometer (ACEA Biosciences, Inc.).

human IgE [22] = molecular target: T1, human IgE; experiment: ELISA, blocks binding of 5 nM IgE to coated FCER2/CD23
Method: as §3

T1 sequence (P01854 other isoform, or with tags, fused parts or gaps limits assumed, form in doubt): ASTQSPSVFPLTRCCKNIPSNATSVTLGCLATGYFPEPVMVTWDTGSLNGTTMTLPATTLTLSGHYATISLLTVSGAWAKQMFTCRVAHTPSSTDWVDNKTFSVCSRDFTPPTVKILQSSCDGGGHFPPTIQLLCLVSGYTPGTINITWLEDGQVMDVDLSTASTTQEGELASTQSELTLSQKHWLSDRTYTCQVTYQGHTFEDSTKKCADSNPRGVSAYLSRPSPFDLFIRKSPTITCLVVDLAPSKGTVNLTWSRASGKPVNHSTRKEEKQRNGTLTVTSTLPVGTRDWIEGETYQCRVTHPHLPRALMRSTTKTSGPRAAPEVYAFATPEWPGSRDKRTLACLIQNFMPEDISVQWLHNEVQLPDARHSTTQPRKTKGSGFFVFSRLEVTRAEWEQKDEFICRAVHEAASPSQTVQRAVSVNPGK
human IgE pre-complexed to FCER1A on the surface of human mast cells, sequence (P01854 other isoform, or with tags, fused parts or gaps): as the sequence (P01854 other isoform, or with tags, fused parts or gaps limits assumed, form in doubt) above
recombinant human anti-hapten dinitrophenol (DNP) IgE (rhIgE), sequence (P01854 other isoform, or with tags, fused parts or gaps): as the sequence (P01854 other isoform, or with tags, fused parts or gaps limits assumed, form in doubt) above
T4 sequence (P01854 other isoform, or with tags, fused parts or gaps, chain 1 of 2): as the sequence (P01854 other isoform, or with tags, fused parts or gaps limits assumed, form in doubt) above
T4 sequence (P06734 whole entry, chain 2 of 2): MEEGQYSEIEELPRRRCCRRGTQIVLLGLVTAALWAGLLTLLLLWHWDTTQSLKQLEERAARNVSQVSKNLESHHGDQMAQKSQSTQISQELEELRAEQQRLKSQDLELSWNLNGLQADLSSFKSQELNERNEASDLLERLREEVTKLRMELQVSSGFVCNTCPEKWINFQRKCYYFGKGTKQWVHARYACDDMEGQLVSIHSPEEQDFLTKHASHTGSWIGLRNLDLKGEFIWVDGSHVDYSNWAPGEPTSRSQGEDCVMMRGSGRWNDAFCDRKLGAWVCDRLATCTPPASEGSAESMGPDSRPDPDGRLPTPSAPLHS
human IgM (Novus, NBP1-97056), sequence (P01871 other isoform, or with tags, fused parts or gaps): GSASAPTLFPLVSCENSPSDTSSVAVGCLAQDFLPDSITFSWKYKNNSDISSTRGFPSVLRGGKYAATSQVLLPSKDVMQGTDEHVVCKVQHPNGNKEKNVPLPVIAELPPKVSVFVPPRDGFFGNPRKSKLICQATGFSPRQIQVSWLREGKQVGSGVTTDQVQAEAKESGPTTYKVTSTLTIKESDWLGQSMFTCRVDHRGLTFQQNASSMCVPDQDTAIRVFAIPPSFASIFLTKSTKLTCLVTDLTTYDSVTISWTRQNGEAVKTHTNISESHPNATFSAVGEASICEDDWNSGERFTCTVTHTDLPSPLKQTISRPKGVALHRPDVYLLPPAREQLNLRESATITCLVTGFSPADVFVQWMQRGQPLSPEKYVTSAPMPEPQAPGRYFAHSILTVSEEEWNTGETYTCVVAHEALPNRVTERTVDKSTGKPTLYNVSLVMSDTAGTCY

Kd (human IgE [1]): 1.1 nM
koff (human IgE [1]): 0.000258 s⁻¹
kon (human IgE [1]): 242000 M⁻¹ s⁻¹
Bmax (OD 650 nm) (human IgE [2]): 0.873 OD 650 nm
Kd (human IgE [3]): 0.266 nM
Activation IC50 (nM), CD63 on mast cells [4]: 3.09 nM
IC50 (human IgE [5]): 0.61 nM
binding result [6]: no binding
Bmax (human IgE [8]): 0.808 OD 650
Kd (human IgE [8]): 0.11 nM
IC50 (human IgE [9]): 7.63 nM
Kd (human IgE [10]): 0.6 nM
koff (human IgE [10]): 0.000207 s⁻¹
kon (human IgE [10]): 373000 M⁻¹ s⁻¹
Kd (human IgE [11]): 0.6 nM
koff (human IgE [11]): 0.000449 s⁻¹
kon (human IgE [11]): 422000 M⁻¹ s⁻¹
IC50 (human IgE [12]): ~3.4 nM
B1: hzB10v40-IgG1 DSELF Fc region (cx13032) (Fc fusion)
chain: EVQLLESGGGEVQPGGSLRLSCVASGLTFSSYNMGWLRQAPGKEREFVGLSGSSSTSTYYAESVKGRFTISRDNAKNTVYLQMTSLRAEDTAVYYCAARRLLSTYWSDRSWDFWGQGTLVTVEPGGGGDKTHTCPPCPAPELLDGPSVFLFPPKPKDTLMISRTPEVTCVVVDVEHEDPEVKFNWYVDGVEVHNAKTKPREEQYNSTYRVVSVLTVLHQDWLNGKEYKCKVSNKAFPAPIEKTISKAKGQPREPQVYTLPPSREEMTKNQVSLTCLVKGFYPSDIAVEWESNGQPENNYKTTPPVLDSDGSFFLYSKLTVDKSRWQQGNVFSCSVMHEALHNHYTQKSLSLSPGK
notes: hzB10v40 VHH + GGGG linker + IgG1 DSELF Fc; described as bivalent; also called hzB10v40-DSELF; hzB10v40-IgG DSELF Fc
binding result [7]: no binding (tested: titrated from 1000 nM)

Bmax (OD 650 nm) (human IgE [2]): 0.946 OD 650 nm
Bmax (human IgE [13]): 1.2 OD 650
Kd (human IgE [13]): 0.123 nM
Kd (human IgE [3]): 0.127 nM
Bmax (OD 650 nm) (human IgE [14]): 0.814 OD 650 nm
Activation IC50 (nM), CD63 on mast cells [4]: 1.93 nM
Bmax (human IgE [8]): 0.95 OD 650
Kd (human IgE [8]): 0.0585 nM
IC50 (human IgE [15]): ~2.1 nM
binding result [16]: no binding (tested: 200 nM)
Kd [17]: 0.288 nM
IC50 (human IgE [9]): 5.59 nM
Kd (human IgE [18]): 0.102 nM
IC50 (human IgE [19]): 2.71 nM
binding result [20]: no binding (tested: 250 nM)
Bmax [21]: 15000 Mean APC-A
Kd [21]: 6.17 nM
IC50 (human IgE [22]): 0.604 nM
IC50 (human IgE [12]): ~3.2 nM
B2: cx10710, comprising IgG1 SELF Fc (antibody, V domains shown)
VH: QVQLQESGPGLVKPSETLSLTCAVSGYSITSGYSWNWIRQPPGKKLEWIGSITYDGSSNYNPSLKSRVTISRDTSKNQFSLKLSSVTAADTAVYYCARGSHYFGHWHFAVWGAGTLVTVSS
VL: DIQLTQSPSSLSASVGDRVTITCRASQSVDYDGDSYMNWYQQKPGQPPKLLIYAASYLGSEIPARFSGSGSGTDFTLTISSLQPEDFATYYCQQSHEDPYTFGAGTKLEIKR
notes: Conventional full length anti-IgE antibody with IgG1 SELF Fc; also called conventional antibody comparator; 710 (a derivative of Omalizumab); copies: 2 + 2
binding result [7]: no binding (tested: titrated from 1000 nM)
